Experimental data taken from the supplement of paper PMC9170038.

Tested on: MS2 coat protein
Assay: apparent KD of MS2 coat protein; designed switch direction (-1 OFF switch, 1 ON switch): -1; higher = weaker reporter binding
Method in brief: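 On Illumina chips, designed RNA switches with common flanks were made by stalled E. coli RNA polymerase. Titrations with SNAP-549-labelled MS2 coat protein, doubling from 0.7 or 1.5 nM to 3 µM, were done with no input, with 200 uM small-molecule ligand, or with an oligonucleotide input. Apparent KD is the median per design over clusters, from curve fits of normalised cluster fluorescence.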

[1] = input ligand: microRNA oligo, concentration not stated
[2] = Eterna round: R95, input ligand: microRNA oligo, concentration not stated
[3] = Eterna round: R95, input ligand: FMN 200 uM
[4] = Eterna round: R95, input ligand: none

Row | Sequence | apparent KD of MS2 coat protein (input ligand: FMN 200 uM) [µM] | apparent KD of MS2 coat protein (input ligand: none) [µM] | apparent KD of MS2 coat protein [2] [µM] | also measured
1 | GGCACACAUGAGGAUCACCCAUGUGAGGAUAUUAGGCGAUCGUCGAAAGACGAUAGCCUGAGAAGGCACAUGCC [Eli x1 4.12] (Eterna round: R97, puzzle: Exclusion 1) | 0.0922 | 0.0198 | – | –
2 | GUAGAGUCAGGAUAUACGAGAUCGAAAGAUCGGCGGUCCAUACAUGAGGAUCACCCAUGUAGAAGGGACUCUAC [Omei mod 5 to Eli's favorate candidate (ch.parushev)] (Eterna round: R97, puzzle: Exclusion 2) | 0.115 | 0.0183 | – | –
3 | CGGAUGUCAGGAUAUCGUGCAUACAACGAAAGUUCUAUGUGCGAGAAGGGACAUGAGGAUCACCCAUGUUUACG [Omei Ex4 A11] (Eterna round: R97, puzzle: Exclusion 4) | 0.206 | 0.0349 | – | –
4 | UCUAACCAUGUAGGAUAUGCGUGGCUAAGCUAUGCAGAAGGACAUGAGGAUCACCCAUGUGCCUCCGUCUGCGUACAGUCGGCU [EXclNG1-LROPPY01] (Eterna round: R96, puzzle: Exclusion NG 1) | 0.0155 | 0.0185 | – | apparent KD of MS2 coat protein [1]: 0.0112 µM
5 | AGUGUGUGGCAGGAUAUGCUGUUGAUUGGUGGAGCAGAAGGGUCUACAUGAGGAUCACCCAUGUAAGCGGUUGA [Ex6 #30] (Eterna round: R97, puzzle: Exclusion 6) | 0.125 | 0.0365 | – | –
6 | GGACAGUCAGGAUAUACAUGAGGAUCACCCAUGUUGAGAUGUGAAAGGGCGGGAGUAGGUAGAAGGGACGAGAG [JR_Exclu3_Sub040] (puzzle: Exclusion 3) | – | – | 0.0232 | –
7 | UGAUUGAUUAACAGAUUAUACAUGAGGAUCACCCAUGUAGGUCCUACGUGCACUUUAUGCAGCUCGUCUUAUUCCCA [Sensor-V1 #71] (Eterna round: R97, puzzle: Sensor, turn-off variant 1) | 0.0344 | 0.0365 | – | –
8 | AAUAACAGAGGAUAUACUAUUUUAUGUGUUUGUUGUUUUGAACAUGAGGAUCACCCAUGUAGAAGGCUGAUUAA [JMF 52] (puzzle: Exclusion 2) | – | – | 0.0343 | –
9 | UUCUGGACAGGAUAUGUACUUGAGCACUUGAGGAUCACCCAAGUCCUCAAGUACUCAGGCACAGAAGGGUUAAUUU [jl-ex5.4.65 ViennaUCT mod] (Eterna round: R97, puzzle: Exclusion 5) | 0.11 | 0.0719 | – | –
10 | CAGGGUAGAGGAUAUACGUAGGUACAGAUCCGUGUGAUCCUACAUGAGGAUCACCCAUGUAGAAGGCUAGCCUG [LRO-Excl2-06] (puzzle: Exclusion 2) | – | – | 0.332 | –
11 | GCGAAAACAAACAGGUGAAACAUGAGGAUCACCCAUGUCCUCAUUUGCUCGUCUUAUAAGCUAUGCGAAAGCAUAGC [Mat - Sensor v3 - turn-off var 1 - Eli Mod - D55] (puzzle: Sensor v3, turn-off variant 1) | – | – | 0.2 | apparent KD of MS2 coat protein [3]: 0.283 µM; apparent KD of MS2 coat protein [4]: 0.348 µM
12 | GCACAGGCAGGAUAUACAUGAGGAUCACCCAUGUGAUCCCUUAAGUACAAAAGUACUAGUAGAAGGGCCUGUGC [Omei Ex3 Model Bachelor's Dilema v47] (Eterna round: R97, puzzle: Exclusion 3) | 0.646 | 1.21 | – | –
13 | GCACGAAGUGUAGGAUAUCUGUGCGAUUAGCUCAGAGAAGGACACAUGAGGAUCACCCAUGUGUUCCGCGGAAGCAAAACGUGC [Eli exng1 - 056] (Eterna round: R96, puzzle: Exclusion NG 1) | 0.0112 | 0.0114 | – | apparent KD of MS2 coat protein [1]: 0.00908 µM
14 | UAGAUACAUGAGGAUCACCCAUGUGAGGAUAUGAGAAUUAUAUUAAAUGAAUGUAGUAUCAGAAGGCACAAAGG [JR_Ex1_Sub049] (Eterna round: R97, puzzle: Exclusion 1) | 0.197 | 0.13 | – | –
15 | ACAUGUAUUGCAGGAUAUGGGACACAUGAGGAUCACCCAUGUGACUACAUGUAAUGCCACGGGUCUCAGAAGGGUAUGUACAUG [Ex NG2 #42] (Eterna round: R96, puzzle: Exclusion NG 2) | 0.0815 | 0.0313 | – | apparent KD of MS2 coat protein [1]: 0.0229 µM
16 | CCAUCGAGUGUGAGGAUAUGCUGGUCCUUGGAUCAGCAGAAGGCACAUGAGGAUCACCCAUGUGGAUACGGUGG [JL bmx4 3.19] (puzzle: Brourd's mod of Exclusion 4) | – | – | 0.03 | –
17 | UAUGUCGACAAGGAUAUUUGCGCAAACGACCACAAAGAAGGUGUCACAUGAGGAUCACCCAUGUGGUGUGGGCC [Eternabot (L1) Solution 83] (Eterna round: R97, puzzle: Exclusion 6) | 0.202 | 0.209 | – | –
18 | AGACGUGCAGUGCUCCUCCACAUGAGGAUCACCCAUGUCACUGAGGAUAUCUGCAGGUAACUGCUGGAGAAGGCAGAAAGAAUG [Atrien] (Eterna round: R96, puzzle: Exclusion NG 3) | 0.0819 | 0.0295 | – | apparent KD of MS2 coat protein [1]: 0.0221 µM

Row | Sequence | apparent KD of MS2 coat protein (input ligand: FMN 200 uM) [µM] | apparent KD of MS2 coat protein (input ligand: none) [µM] | apparent KD of MS2 coat protein [2] [µM] | also measured
19 | UUAAAUCAUGUAGGAUAUGCGUGGCGAAGCUAUGCAGAAGGACAUGAGGAUCACCCAUGUGCUUCCGUCUGCGUACAGAUGGUA [JL ENG1 1.13] (Eterna round: R96, puzzle: Exclusion NG 1) | 0.315 | 0.0625 | – | apparent KD of MS2 coat protein [1]: 0.0527 µM
20 | CACCGGGUAGGAUAUACUUGAGGAUCACCCAAGUGGGAACCUACUCGGUGGUCCUUAAGUAGAAGGACCAACGG [Ex 2] (Eterna round: R97, puzzle: Exclusion 3) | 0.0115 | 0.0119 | – | –
21 | CAGGUCUGAAAGGAUAUCCACGCCUGCGGGCCAGGAGAAGGUUCGACUUGAGGAUCACCCAAGUGCCGAGUCCA [Ervezaar] (Eterna round: R97, puzzle: Exclusion 6) | 0.0332 | 0.0206 | – | –
22 | AGGUGUAGAGGAUAUCUAUCCUCGCACAUGAGGAUCACCCAUGUCCUGGUCACCAAGGACGGAGAAGGCUACACCA [Omei Ex5 D20] (Eterna round: R97, puzzle: Exclusion 5) | 0.427 | 0.773 | – | –
23 | CACUUGGUAGGAUAUGAAGGGAGGAACAUGAGGAUCACCCAUGUCCUGGAAUCCAGUCCGUCAGAAGGACCUGAGC [Eternabot (L1) Solution 44] (Eterna round: R97, puzzle: Exclusion 5) | 0.0244 | 0.0216 | – | –
24 | ACAGGUUAAGGAUAUACAUGAGGAUCACCCAUGUCGAGUAUCUUGUCAUGCCGCCCAUGUAGAAGGUAACAUGG [Geale] (puzzle: Exclusion 3) | – | – | 0.0143 | –
25 | UGAUCUAGCGGAGGAUAUACAUGAGGAUCACCCAUGUAGAAUCCAUGACCGUAGUCGUGGAUCGUGUAGAAGGCCGCUAGAUCU [JL ENG2 3.71] (Eterna round: R96, puzzle: Exclusion NG 2) | 0.0218 | 0.0125 | – | apparent KD of MS2 coat protein [1]: 0.009 µM
26 | UUAAUUAAUUAACGCAGCAAGAUCACAUGAGGAUCACCCAUGUAGGAUAUCAGCUCGAUUAGAGCUGAGAAGGACAUAGCUGCG [ExNG3/1-A1] (Eterna round: R96, puzzle: Exclusion NG 3) | 0.103 | 0.0175 | – | apparent KD of MS2 coat protein [1]: 0.0182 µM
27 | GGGCCCGGUGUGAGGAUAUGUUUGGGUAAACCCGGGCAGAAGGCACAUGAGGAUCACCCAUGUAAGCCGGGCCC [-37.5, -35.4 kcal, A 23%, 5bbis-0] (Eterna round: R97, puzzle: Brourd's mod of Exclusion 4) | 0.0147 | 0.0192 | – | –
28 | CCAGCGUAUGUGAGGAUAUGCUGGUCCUUGGAUCAGCAGAAGGCACAUGAGGAUCACCCAUGUGGUGUCGUUGG [JL bmx4 3.45] (puzzle: Brourd's mod of Exclusion 4) | – | – | 0.149 | –
29 | AAAACACAUGAGGAUCACCCAUGUGAGGAUAUGUCCAUGCUCGGCAAACCGGGCAUGGACAGAAGGCACAUAAA [JR_Exclusion1_Sub015] (puzzle: Exclusion 1) | – | – | 0.0403 | –
30 | UUCAUGUGAGGAUAUGUGCAAGACCUAGAGAUUGGGUUUUCACAGAAGGCACAUGAGGAUCACCCAUGUGUUAC [Eternabot (L2) Solution 23] (Eterna round: R97, puzzle: Exclusion 4) | 0.232 | 0.126 | – | –
31 | GGUGCGUAUGUGAGGAUAUGCUGGUCCUUGGAUCGGCAGAAGGUACAUGAGGAUCACCCAUGUGGUGUCGUUCU [salish99_Bmod_ex4_105] (puzzle: Brourd's mod of Exclusion 4) | – | – | 0.232 | –
32 | GGCUUCUGAGGAUAUUAACACCGUUACAUGAGGAUCACCCAUGUUCCUCACGCUACGGCUUAAGAAGGCAGAUGAA [Eternabot (Original) Solution 32] (Eterna round: R97, puzzle: Exclusion 5) | 0.0296 | 0.0649 | – | –
33 | AAUAACAGAGGAUAUACUAUUUUAUGUGUUUGUUAUUUUGAACAUGAGGAUCACCCAUGUAGAAGGCUGAAUAA [JMF 22] (puzzle: Exclusion 2) | – | – | 0.0217 | –
34 | CCGAUGUGAGGAUAUACACUAGGGUGCGUAUACGUGAGCAAACAUGAGGAUCACCCAUGUAGAAGGCACUGAAA [Eternabot (Original) Solution 50] (Eterna round: R97, puzzle: Exclusion 2) | 0.117 | 0.0309 | – | –
35 | AGUACUAACACGGAAGUGUUAGUACUAUAAGCUUGUGUUACAUGAGGAUCACCCAUGUCCUCAUAAGCUCGUCUUAA [Mat - Sensor v3 - Turn-off var 2 - D70] (puzzle: Sensor v3, turn-off variant 2) | – | – | 0.127 | apparent KD of MS2 coat protein [3]: 0.0351 µM; apparent KD of MS2 coat protein [4]: 0.0364 µM
